Experimental data: patent US20060030524A1, “Treatment of systemic lupus erythematosus by down-regulating the autoimmune response to autoantigens” (Yeda Research and Development Co. Ltd., priority 1998, published 2006)

Tests used:
histones = experiment: ELISA of sera of Ab1-immunized mice for anti-histone antibodies; assay type: in vivo; conditions: mice immunized with Ab1, bled two weeks after second boost
Experimental: (§1) ELISA assays were conducted in 96-well Maxisorp plates (Nunc, Roskilde, Denmark), which were coated with 10 μg test antigen per ml in PBS. After washing and blocking with 1% BSA in PBS for one hour at 37° C., diluted test sera (0.1 ml per well) was added for one hour at 37° C., followed by one hour incubation with goat anti-mouse IgG Fc specific, or IgG-isotype specific secondary antibodies conjugated to alkaline phosphatase, diluted 1:5000 (Jackson, Philadelphia, Pa.). A substrate solution containing 0.6 mg/ml of p-nitrophenylphosphate (Sigma, Rehovot, Israel) in diethanolamine-H2O, pH 9.8, was added, and the plates were read at 405 nm.
(§2) For anti-DNA ELISA, a secondary antibody conjugated to horseradish peroxidase, and as substrate 1 mg/ml ABTS in 0.2 M citric acid, 0.2 M Na2HP04, and 3% H202 (all from Sigma) was used. The test antigens used were (Fab) 2 fragments of Ab2 anti-PAb-421, which were prepared as described (Harlow et al, 1988), recombinant p53, the p53 peptide epitope of PAb-421, histones or, after pre-coating with methylated BSA, calf thymus DNA (all from Sigma). All antibody titers are shown as the O. D. produced by the test sera at a dilution of 1:100. Dots represent individual sera, bars represent the median of each group.

[1] = target: T1, p53 peptide epitope of PAb-421 (364-383 of SEQ ID NO:1) (Mus musculus, UniProt P02340); experiment: ELISA of sera of Ab1-immunized mice for Ab3 to the p53 peptide epitope of PAb-421; assay type: in vivo
T1 construct: made in house; host or cells: chemical synthesis (Abimed AMS 422)
T1 sequence (P02340 364-383 limits assumed): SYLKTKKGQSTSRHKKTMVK
Experimental: (§3) E. coli BL21 (DE3) cells were transformed with the T7 expression vector containing mouse p53 DNA (Shohat-Foord et al, 1991). P53 was purified as described (Wolkowicz et al, 1995). All peptides, including the p53 peptide epitope of PAb-421 ([…]) (residues 364-383 of SEQ ID NO:1) were prepared using an automated synthesizer (Abimed AMS 422; Langenfeld, Germany) according to the manufacturer. Peptide purity was tested by analytical reverse phase HPLC and mass spectroscopic analysis.
ELISA assays were conducted in 96-well Maxisorp plates (Nunc, Roskilde, Denmark), which were coated with 10 μg test antigen per ml in PBS. […] A substrate solution containing 0.6 mg/ml of p-nitrophenylphosphate (Sigma, Rehovot, Israel) in diethanolamine-H2O, pH 9.8, was added, and the plates were read at 405 nm.
Because the two mouse strains differed in their Ab1 response to PAb-421, it was conceivable that they also might differ in their Ab3 response to this Ab1 antibody. The specificity of the Ab3 response was analyzed by probing test sera for antibodies to the C-terminal peptide epitope of p53 that is recognized by the inducing PAb-421 (amino acids 364-383 of SEQ ID NO:1).

BALB/c and C57BL/6 mice = experiment: Induction of SLE-like disease by Ab1 immunization (proteinuria, histology, leukocyte counts); assay type: in vivo
Description: Paraffin sections of tissue samples were either stained with hematoxylin and eosin, or immunostained with a peroxidase-labeled anti-mouse-IgG antibody (Jackson, Philadelphia, Pa.) and DAB (Sigma) according to the manufacturer's instructions.
Proteinuria was detected with Albustix strips (Bayer, Slough, UK). Leukocytes were counted from heparinized blood following 10-fold dilution in 1% acetic acid.

[2] = tested on: single-stranded calf thymus DNA; experiment: Anti-DNA ELISA of sera of Ab1-immunized mice; assay type: in vivo; conditions: sera of BALB/c mice immunized with the Ab1
Experimental: as §2

[3] = tested on: native, histone-free DNA of Crithidia luciliae; experiment: Crithidia luciliae assay of sera of Ab1-immunized mice; assay type: in vivo; conditions: sera of BALB/c mice immunized to the Ab1
Experimental: Slides with Crithidia were purchased from Immco (Buffalo, N.Y.) and incubated with the test sera according to the manufacturer's protocol.
Test sera were then examined for binding to DNA using the Crithidia luciliae assay, which detects antibodies—to native, histone-free DNA exposed at the base of the Crithidia flagellum. Both BALB/c and C57BL/6 mice immunized to […] or PAb-248 were negative for anti-DNA antibodies in the Crithidia assay, as were C57BL/6 mice immunized to PAb-421. […] The finding of positive reactivity in the Crithidia assay correlates with the clinical disease seen in the BALB/c mice. The Crithidia luciliae assay is used clinically for its diagnostic specificity for lupus in humans (Aarden et al, 1975).

[4] = tested on: (Fab)2 fragments of the Ab1 anti-p53 antibodies; experiment: ELISA of sera of Ab1-immunized mice for Ab2 anti-idiotypic antibodies; assay type: in vivo
Experimental: as §1
as §2, with “Dots represent individual sera, bars represent the median of each group.” left out
To learn whether both strains of mice responded to the Ab1 immunization by making Ab2 anti-idiotypic antibodies, the reactivity of their sera to the (Fab)2 fragment of the Ab1 anti-p53 antibodies was determined.

recombinant p53 = target: T2, recombinant p53 (Mus musculus, UniProt P02340); experiment: ELISA of sera of Ab1-immunized mice for Ab3 anti-p53 antibodies; assay type: in vivo
T2 construct: made in house; host or cells: E. coli BL21 (DE3)
T2 sequence (P02340 whole entry): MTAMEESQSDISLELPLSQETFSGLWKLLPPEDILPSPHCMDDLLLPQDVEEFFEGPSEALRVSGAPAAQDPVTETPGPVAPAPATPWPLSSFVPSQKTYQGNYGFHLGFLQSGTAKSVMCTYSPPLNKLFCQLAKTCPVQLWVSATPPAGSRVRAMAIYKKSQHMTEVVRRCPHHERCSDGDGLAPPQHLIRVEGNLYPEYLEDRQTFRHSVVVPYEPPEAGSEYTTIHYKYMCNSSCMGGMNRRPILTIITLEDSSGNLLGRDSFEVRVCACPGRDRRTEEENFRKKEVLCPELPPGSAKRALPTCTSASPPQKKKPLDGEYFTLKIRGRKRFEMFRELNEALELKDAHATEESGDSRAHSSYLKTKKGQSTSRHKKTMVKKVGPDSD
Experimental: as §3, §1
To test whether immunization to Ab1 could induce Ab3, immunized mice were assayed for antibodies to p53. […] However, Ab1 antibodies PAb-246 and PAb-421 induced a stronger Ab3 anti-p53 response in the BALB/c strain than they did in the C57BL/6 strain.

[5] = tested on: p53-responsive element oligonucleotide; experiment: Band shift assay of sera of Ab1-immunized mice; assay type: in vivo; conditions: sera of BALB/c mice immunized to the Ab1
[6] = tested on: Ab2 of immunized C57BL/6 mice cross-reactive to PAb-246 and PAb-421; experiment: Absorption of Ab2 cross-reactivity by preincubation with anti-p53 antibodies; assay type: binding; conditions: sera of immunized C57BL/6 mice preincubated with the antibody
Experimental: FIG. 2 is a graph showing cross-reactivity of C57BL/6 mouse Ab2 to PAb-246 and PAb-421. […] The mean percent inhibition (+SD) of the reactivity to PAb-246 or PAb-421 by preincubation is shown.
The Ab2 cross-reactivity of the C57BL/6 mice seemed to be limited to PAb-246 and PAb-421. To confirm the Ab2 cross-reactivity between PAb-246 and PAb-421, tests were conducted to determine whether preincubation with either of the anti-p53 antibodies could absorb out the cross-reactivity. […] The mean percent inhibition (+SD) of the reactivity to PAb-246 or PAb-421 by preincubation is shown.

induction of Ab3 anti-p53 antibodies (FIG. 4A) (recombinant p53; BALB/c mice): make anti-p53 antibodies
induction of Ab3 anti-p53 antibodies (FIG. 4A) (recombinant p53; C57BL/6 mice): make anti-p53 antibodies
B1: PAb-421: monoclonal antibody (Ab1) against the C-terminal DNA-binding domain of murine p53; VH SEQ ID NO:2, VL SEQ ID NO:3 (antibody, listed as Mus sp., V domains shown)
VH: QVKLQESGAELVRSGASVKLSCTASGFNIKDYYMHWVKQRPEQGLEWIGWIDPENGDTEYAPKFQGKATMTADTSSNTAYLQLSSLASEDTAVYYCNFYGDALDYWGQGTTVTVSS
VL: DIQLTQSPLTLSVTIGQPASISCKSSQSLLDSDGKTYLNWLLQRPGQSPKRLIYLVSKLDSGVPDRFTGSGSGTDFTLKINRVEAEDLGVYYCWQGTHSPLTFGAGTKLK
modifications: BINDING (26)..(35) Complementary Determining Region; BINDING (24)..(39) Complementary Determining Region
mice that developed significant titers of anti-histone antibodies (histones): About 30%
Ab3 antibodies to the p53 peptide epitope of PAb-421 (FIG. 5) ([1]; BALB/c mice): made antibodies to the peptide epitope of PAb-421
Ab3 antibodies to the p53 peptide epitope of PAb-421 (FIG. 5) ([1]; C57BL/6 mice): did not make antibodies to the C-terminal p53 peptide
immunized mice that exhibited proteinuria (BALB/c and C57BL/6 mice; 80 BALB/c mice immunized with Ab1): about 95%
development of lupus after Ab1 immunization (BALB/c and C57BL/6 mice; BALB/c mice): develop a lupus-like disease
mice leukopenic (<4000 leukocytes per ml) and lymphopenic (<1200 lymphocyte per ml) (BALB/c and C57BL/6 mice; BALB/c mice immunized with Ab1): Seven out of ten
development of lupus after Ab1 immunization (BALB/c and C57BL/6 mice; C57BL/6 mice): did not develop disease
anti-DNA reactivity to single stranded calf thymus DNA (FIG. 3) [2]: High anti-DNA reactivity
anti-DNA antibodies in the Crithidia assay [3]: produced anti-DNA antibodies detectable by the Crithidia assay
Ab2 anti-idiotypic response, specificity (FIG. 1) ([4]; BALB/c mice): made antibodies specific to PAb-421
Ab2 anti-idiotypic response, specificity (FIG. 1) ([4]; C57BL/6 mice): cross-reacted to both PAb-246 and PAb-421
anti-DNA Ab2 to the p53-responsive element (band shift) [5]: did not make such anti-DNA antibodies
absorption of Ab2 cross-reactivity between PAb-246 and PAb-421 by preincubation (FIG. 2) [6]: absorbed out significantly
